Consider one molecule from PMC10900128 (Chembiochem : a European journal of chemical biology, 2018).

*: point of attachment. FITC = O=C1OC2(c3ccc(O)cc3Oc3cc(O)ccc32)c2ccc(NC(=S)*)cc21; βAla = NCCC(=O)O

This experiment concerns the target T1, FITC-MLL peptide (SMILES …).
T1 peptide: {FITC-βAla}-DAGNILPSDIMDFVLKNTP-NH2
Kind of experiment: fluorescence polarisation. For orientation: Polarisation of emitted light reports the rotation of a fluorescent probe.

B1: GACKIX N627C (GACKIX domain of mouse CBP, residues 586–672, N627C mutant), unlabeled (domain or fragment)
chain: not shown
With B1, the binding result is given as “binds”.
